The values that follow come from US6362395 (WASHINGTON STATE UNIVERSITY RESEARCH FOUNDATION, dated 2002).

The target in this assay is calmodulin (unlabeled, as used in the gel mobility-shift and kinase assays of Example 2) (spinach, UniProt P04353 2-149). The assay is described as follows: gel mobility-shift, non-denaturing PAGE, 0.5 mM CaCl2.

B1: synthetic peptide CCaMK 328-340 (peptide, UniProt Q43531 328-340, looked up)
peptide: KLRAAAIASVLSS
In the case of B1, the binding result is given as “no binding”.
